Results: article PMC3823998, “Structural and Functional Characterization of the Redβ Recombinase from Bacteriophage λ” (PLoS ONE, 2013)

Biological target: the molecule itself
Assay: SEC; Superdex 200 5/150 GL, 20 mM potassium phosphate pH 6.0, 10 mM MgCl2, 0.15 M NaCl; masses estimated from a calibration curve; self-association, no DNA

Protein | binding result | stoichiometry N [subunits]
Redβ G78A (natural protein, bacteriophage λ, three residues (Gly-Ser-His) left before the initial methionine after thrombin removal of the tag; Redβ, recombinase of Enterobacteria phage λ, alanine substitution mutant; source: E. coli BL21(DE3), purified (HisTrap FF, thrombin digestion, HisTrap FF, Benzamidine FF); not shown: His6, N-terminal, cleaved) GSHMSTALATLAGKLAERVGMDSVDPQELITTLRQTAFKGDASDAQFIALLIVANQYGLNPWTKEIYAFPDKQNGIVPVVAVDGWSRIINENQQFDGMDFEQDNESCTCRIYRKDRNHPICVTEWMDECRREPFKTREGREITGPWQSHPKRMLRHKAMIQCARLAFGFAGIYDKDEAERIVENTAYTAERQPERDITPVNDETMQEINTLLIALDKTWDDDLLPLCSQIFRRDIRASSELTQAEAVKALGFLKQKAAEQKVAA | binds | 
Redβ R152A (natural protein, bacteriophage λ, three residues (Gly-Ser-His) left before the initial methionine after thrombin removal of the tag; Redβ, recombinase of Enterobacteria phage λ, alanine substitution mutant; source: E. coli BL21(DE3), purified (HisTrap FF, thrombin digestion, HisTrap FF, Benzamidine FF); not shown: His6, N-terminal, cleaved) GSHMSTALATLAGKLAERVGMDSVDPQELITTLRQTAFKGDASDAQFIALLIVANQYGLNPWTKEIYAFPDKQNGIVPVVGVDGWSRIINENQQFDGMDFEQDNESCTCRIYRKDRNHPICVTEWMDECRREPFKTREGREITGPWQSHPKRMLAHKAMIQCARLAFGFAGIYDKDEAERIVENTAYTAERQPERDITPVNDETMQEINTLLIALDKTWDDDLLPLCSQIFRRDIRASSELTQAEAVKALGFLKQKAAEQKVAA | binds | 
Redβ K148A (natural protein, bacteriophage λ, three residues (Gly-Ser-His) left before the initial methionine after thrombin removal of the tag; Redβ, recombinase of Enterobacteria phage λ, alanine substitution mutant; By gel filtration complexes of approximately 3 subunits; source: E. coli BL21(DE3), purified (HisTrap FF, thrombin digestion, HisTrap FF, Benzamidine FF); not shown: His6, N-terminal, cleaved) GSHMSTALATLAGKLAERVGMDSVDPQELITTLRQTAFKGDASDAQFIALLIVANQYGLNPWTKEIYAFPDKQNGIVPVVGVDGWSRIINENQQFDGMDFEQDNESCTCRIYRKDRNHPICVTEWMDECRREPFKTREGREITGPWQSHPARMLRHKAMIQCARLAFGFAGIYDKDEAERIVENTAYTAERQPERDITPVNDETMQEINTLLIALDKTWDDDLLPLCSQIFRRDIRASSELTQAEAVKALGFLKQKAAEQKVAA |  | ~3
Redβ V79A (natural protein, bacteriophage λ, three residues (Gly-Ser-His) left before the initial methionine after thrombin removal of the tag; Redβ, recombinase of Enterobacteria phage λ, alanine substitution mutant; source: E. coli BL21(DE3), purified (HisTrap FF, thrombin digestion, HisTrap FF, Benzamidine FF); not shown: His6, N-terminal, cleaved) GSHMSTALATLAGKLAERVGMDSVDPQELITTLRQTAFKGDASDAQFIALLIVANQYGLNPWTKEIYAFPDKQNGIVPVVGADGWSRIINENQQFDGMDFEQDNESCTCRIYRKDRNHPICVTEWMDECRREPFKTREGREITGPWQSHPKRMLRHKAMIQCARLAFGFAGIYDKDEAERIVENTAYTAERQPERDITPVNDETMQEINTLLIALDKTWDDDLLPLCSQIFRRDIRASSELTQAEAVKALGFLKQKAAEQKVAA | binds | 
Redβ V77A (natural protein, bacteriophage λ, three residues (Gly-Ser-His) left before the initial methionine after thrombin removal of the tag; Redβ, recombinase of Enterobacteria phage λ, alanine substitution mutant; source: E. coli BL21(DE3), purified (HisTrap FF, thrombin digestion, HisTrap FF, Benzamidine FF); not shown: His6, N-terminal, cleaved) GSHMSTALATLAGKLAERVGMDSVDPQELITTLRQTAFKGDASDAQFIALLIVANQYGLNPWTKEIYAFPDKQNGIVPVAGVDGWSRIINENQQFDGMDFEQDNESCTCRIYRKDRNHPICVTEWMDECRREPFKTREGREITGPWQSHPKRMLRHKAMIQCARLAFGFAGIYDKDEAERIVENTAYTAERQPERDITPVNDETMQEINTLLIALDKTWDDDLLPLCSQIFRRDIRASSELTQAEAVKALGFLKQKAAEQKVAA | binds | 
Redβ D80A (natural protein, bacteriophage λ, three residues (Gly-Ser-His) left before the initial methionine after thrombin removal of the tag; Redβ, recombinase of Enterobacteria phage λ, alanine substitution mutant; source: E. coli BL21(DE3), purified (HisTrap FF, thrombin digestion, HisTrap FF, Benzamidine FF); not shown: His6, N-terminal, cleaved) GSHMSTALATLAGKLAERVGMDSVDPQELITTLRQTAFKGDASDAQFIALLIVANQYGLNPWTKEIYAFPDKQNGIVPVVGVAGWSRIINENQQFDGMDFEQDNESCTCRIYRKDRNHPICVTEWMDECRREPFKTREGREITGPWQSHPKRMLRHKAMIQCARLAFGFAGIYDKDEAERIVENTAYTAERQPERDITPVNDETMQEINTLLIALDKTWDDDLLPLCSQIFRRDIRASSELTQAEAVKALGFLKQKAAEQKVAA | binds | 
Redβ Y64A (natural protein, bacteriophage λ, three residues (Gly-Ser-His) left before the initial methionine after thrombin removal of the tag; Redβ, recombinase of Enterobacteria phage λ, alanine substitution mutant; source: E. coli BL21(DE3), purified (HisTrap FF, thrombin digestion, HisTrap FF, Benzamidine FF); not shown: His6, N-terminal, cleaved) GSHMSTALATLAGKLAERVGMDSVDPQELITTLRQTAFKGDASDAQFIALLIVANQYGLNPWTKEIAAFPDKQNGIVPVVGVDGWSRIINENQQFDGMDFEQDNESCTCRIYRKDRNHPICVTEWMDECRREPFKTREGREITGPWQSHPKRMLRHKAMIQCARLAFGFAGIYDKDEAERIVENTAYTAERQPERDITPVNDETMQEINTLLIALDKTWDDDLLPLCSQIFRRDIRASSELTQAEAVKALGFLKQKAAEQKVAA | binds | 
Redβ K132A (natural protein, bacteriophage λ, three residues (Gly-Ser-His) left before the initial methionine after thrombin removal of the tag; Redβ, recombinase of Enterobacteria phage λ, alanine substitution mutant; source: E. coli BL21(DE3), purified (HisTrap FF, thrombin digestion, HisTrap FF, Benzamidine FF); not shown: His6, N-terminal, cleaved) GSHMSTALATLAGKLAERVGMDSVDPQELITTLRQTAFKGDASDAQFIALLIVANQYGLNPWTKEIYAFPDKQNGIVPVVGVDGWSRIINENQQFDGMDFEQDNESCTCRIYRKDRNHPICVTEWMDECRREPFATREGREITGPWQSHPKRMLRHKAMIQCARLAFGFAGIYDKDEAERIVENTAYTAERQPERDITPVNDETMQEINTLLIALDKTWDDDLLPLCSQIFRRDIRASSELTQAEAVKALGFLKQKAAEQKVAA | binds | 
Redβ R149A (natural protein, bacteriophage λ, three residues (Gly-Ser-His) left before the initial methionine after thrombin removal of the tag; Redβ, recombinase of Enterobacteria phage λ, alanine substitution mutant; By gel filtration complexes of approximately 3 subunits; source: E. coli BL21(DE3), purified (HisTrap FF, thrombin digestion, HisTrap FF, Benzamidine FF); not shown: His6, N-terminal, cleaved) GSHMSTALATLAGKLAERVGMDSVDPQELITTLRQTAFKGDASDAQFIALLIVANQYGLNPWTKEIYAFPDKQNGIVPVVGVDGWSRIINENQQFDGMDFEQDNESCTCRIYRKDRNHPICVTEWMDECRREPFKTREGREITGPWQSHPKAMLRHKAMIQCARLAFGFAGIYDKDEAERIVENTAYTAERQPERDITPVNDETMQEINTLLIALDKTWDDDLLPLCSQIFRRDIRASSELTQAEAVKALGFLKQKAAEQKVAA |  | ~3
Redβ K69A (natural protein, bacteriophage λ, three residues (Gly-Ser-His) left before the initial methionine after thrombin removal of the tag; Redβ, recombinase of Enterobacteria phage λ, alanine substitution mutant; source: E. coli BL21(DE3), purified (HisTrap FF, thrombin digestion, HisTrap FF, Benzamidine FF); not shown: His6, N-terminal, cleaved) GSHMSTALATLAGKLAERVGMDSVDPQELITTLRQTAFKGDASDAQFIALLIVANQYGLNPWTKEIYAFPDAQNGIVPVVGVDGWSRIINENQQFDGMDFEQDNESCTCRIYRKDRNHPICVTEWMDECRREPFKTREGREITGPWQSHPKRMLRHKAMIQCARLAFGFAGIYDKDEAERIVENTAYTAERQPERDITPVNDETMQEINTLLIALDKTWDDDLLPLCSQIFRRDIRASSELTQAEAVKALGFLKQKAAEQKVAA | binds | 

Biological target: the molecule itself
Assay: native gel or EMSA; native PAGE, 10 µg protein per lane (20 µg in Figure S3), 5-20% gradient polyacrylamide gel, 25 mM Tris, 192 mM glycine, Coomassie stain; self-association, no DNA

Protein | binding result
Redβ wild-type (WT) protein from bacteriophage λ (natural protein, three residues (Gly-Ser-His) left before the initial methionine after thrombin removal of the tag; Redβ, recombinase of Enterobacteria phage λ, bet gene amplified from phage λ genomic DNA, in pET14b; Forms multimers; subunit about 30 kDa; also called Redβ WT; source: E. coli BL21(DE3), purified (HisTrap FF, thrombin digestion, HisTrap FF, Benzamidine FF); not shown: His6, N-terminal, cleaved) GSHMSTALATLAGKLAERVGMDSVDPQELITTLRQTAFKGDASDAQFIALLIVANQYGLNPWTKEIYAFPDKQNGIVPVVGVDGWSRIINENQQFDGMDFEQDNESCTCRIYRKDRNHPICVTEWMDECRREPFKTREGREITGPWQSHPKRMLRHKAMIQCARLAFGFAGIYDKDEAERIVENTAYTAERQPERDITPVNDETMQEINTLLIALDKTWDDDLLPLCSQIFRRDIRASSELTQAEAVKALGFLKQKAAEQKVAA | binds
Redβ K172A (natural protein, bacteriophage λ, three residues (Gly-Ser-His) left before the initial methionine after thrombin removal of the tag; Redβ, recombinase of Enterobacteria phage λ, alanine substitution mutant; source: E. coli BL21(DE3), purified (HisTrap FF, thrombin digestion, HisTrap FF, Benzamidine FF); not shown: His6, N-terminal, cleaved) GSHMSTALATLAGKLAERVGMDSVDPQELITTLRQTAFKGDASDAQFIALLIVANQYGLNPWTKEIYAFPDKQNGIVPVVGVDGWSRIINENQQFDGMDFEQDNESCTCRIYRKDRNHPICVTEWMDECRREPFKTREGREITGPWQSHPKRMLRHKAMIQCARLAFGFAGIYDADEAERIVENTAYTAERQPERDITPVNDETMQEINTLLIALDKTWDDDLLPLCSQIFRRDIRASSELTQAEAVKALGFLKQKAAEQKVAA | binds
Redβ R161A (natural protein, bacteriophage λ, three residues (Gly-Ser-His) left before the initial methionine after thrombin removal of the tag; Redβ, recombinase of Enterobacteria phage λ, alanine substitution mutant; source: E. coli BL21(DE3), purified (HisTrap FF, thrombin digestion, HisTrap FF, Benzamidine FF); not shown: His6, N-terminal, cleaved) GSHMSTALATLAGKLAERVGMDSVDPQELITTLRQTAFKGDASDAQFIALLIVANQYGLNPWTKEIYAFPDKQNGIVPVVGVDGWSRIINENQQFDGMDFEQDNESCTCRIYRKDRNHPICVTEWMDECRREPFKTREGREITGPWQSHPKRMLRHKAMIQCAALAFGFAGIYDKDEAERIVENTAYTAERQPERDITPVNDETMQEINTLLIALDKTWDDDLLPLCSQIFRRDIRASSELTQAEAVKALGFLKQKAAEQKVAA | binds
